Assay results reported in patent publication US20240067734A1 (Hoffmann-La Roche, published 2024).
Substitutions are numbered along the chain they refer to.

T1: human NKG2D expressed on cells (human, UniProt P26718 1-216)
T1 construct: the cell type is named under assay; also called NKG2D on NK92 cells; HEK293T human NKG2D
T1 chain: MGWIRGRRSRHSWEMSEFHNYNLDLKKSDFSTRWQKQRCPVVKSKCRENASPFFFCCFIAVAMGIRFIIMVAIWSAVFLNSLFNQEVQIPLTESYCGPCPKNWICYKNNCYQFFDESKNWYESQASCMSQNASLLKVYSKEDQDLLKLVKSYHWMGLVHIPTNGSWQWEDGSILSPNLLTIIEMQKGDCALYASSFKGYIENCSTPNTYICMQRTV

T2: recombinant biotinylated human NKG2D (Example 5) (human, UniProt P26718 73-216, biotinylated)
T2 sequence: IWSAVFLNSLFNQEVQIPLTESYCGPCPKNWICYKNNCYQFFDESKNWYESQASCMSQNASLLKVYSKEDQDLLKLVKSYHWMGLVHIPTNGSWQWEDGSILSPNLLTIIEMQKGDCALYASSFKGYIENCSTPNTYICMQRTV

B1: anti-NKG2D antibody 13C6 (IgG) (antibody, V domains shown)
VH: EVQLVQSGAEVKKPGESLKISCKGSGYSFTSYWIGWVRQMPGKGLEWMGIIYPGDSDTRYSPSFQGQVTISADKSISTAYLQWSSLKASDTAMYYCARLYPVGVYFDYWGQGTLVTVSS
VL: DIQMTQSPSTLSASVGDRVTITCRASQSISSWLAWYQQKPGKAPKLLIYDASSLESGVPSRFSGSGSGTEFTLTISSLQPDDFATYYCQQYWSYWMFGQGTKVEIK
notes: also called clone 13C6
B2: anti-NKG2D antibody clone 320 (antibody, V domains shown)
VH: EVQLLESGGGLVQPGGSLRLSCATSGFTFSDYAMSWVRQAPGKGLEWVSYNSFSVGSTDYADSVKGRFTISRDNSKNTLYLQMNSLRAEDTAVYYCSKHSGNYYTGPFHYWGQGTLVTVSS
VL: DIQLTQSPSFLSASVGDRVTITCRASQGISSYLAWYQQKPGKAPKLLIYAASSLESGVPSRFSGSGSGTDFTLTISSLQPEDFATYYCQQSYSTPITFGQGTRLEIK
notes: From transgenic rabbits; also called 320 IgG
B3: anti-NKG2D antibody clone 395 (antibody, V domains shown)
VH: QEQLEQSGGGLVTPGGSLKLCCTASGFDFNTFWMTWVRQAPGKGLEWIGCIHGGSGSRDYASWVNGRFTLSRDIDQSTACLQVNSLTAADTAMYYCARPGYRSWSKTFDLWGQGTMVTVSS
VL: DIQMTQSPSSLSASVGDRVTITCRASQDISGALNWYQQKPGKAPNLLIYAASSLQSGVPSRFSGSGSGTDYTLTISSLQPEDFATYYCQQANSFPLTFGGGTKVEIK
notes: From transgenic rabbits; rabbit VH, human VL
B4: anti-NKG2D antibody clone 001 (antibody, V domains shown)
VH: QQLEQSGGGLVTPGGSLKLCCIGSGFDFNTYWMTWVRQAPGKGLEWIGCIHGGSSGSTYYASWVNGRFTLSRDIDQSTGCLQVNSLTAADTAMYYCARPGYRSWSKTFDLWGQGTMVTVSS
VL: B3 VL with G31E, A32S, N45K
notes: From transgenic rabbits
B5: anti-NKG2D antibody clone 230 (antibody, V domains shown)
VH: B4 VH with T12K, K18E, G23A, N29S, S54G, S57T, Y59S, V83L, N84T
VL: B3 VL with R24Q, S26N, G31N, N45K, Y71F, T85A, N92A
notes: From transgenic rabbits
B6: anti-NKG2D antibody clone 296 (antibody, V domains shown)
VH: EVQLLESGGGLVQPGGSLRLSCAASGFTFSSYAMSWVRQAPGKGLEWVSAIGIGGGGTYYADSVKGRFTISRDNSKNTLYLQMNSLRAEDTAVYHCAKGASFDFINFFPYWGQGTLVTVSS
VL: B3 VL with D28G, G31N, A32D, N34A, N45K, Y71F, A91T, N92Y, F94T
notes: From transgenic rabbits
B7: anti-NKG2D antibody clone 018 (antibody, V domains shown)
VH: B4 VH with L19V, I22K, G23A, N29T, G41E, S54D, S57A, S62N, V83L, R102P
VL: B3 VL with R24Q, G31N, N45K, S53T, Y71F, Q90H, A91S
notes: From transgenic rabbits
B8: anti-NKG2D antibody clone 013 (antibody, V domains shown)
VH: EQSGGGAGGGLVKPGGSLELCCKASGFDFSIYWMSWVRQSPGKGLEWIGRIYGGSSDYTAYASWVNGRFTLSRDIDQSTGCLQLNSLTAADTAMYYCVRLNPSFSRSFDYWGQGTLVTVSS
VL: DIQMTQSPSSVSASVGDRVTITCRASQGIFSWLVWYQQKPGKAPELLMYGASTLQSGVPSRFSGSGSGTDFTLTISSLQPEDFATYYCQQGYSTPYTFGQGTKVEIK
notes: From transgenic rabbits
B9: anti-NKG2D antibody 5C5 (IgG) (antibody, V domains shown)
VH: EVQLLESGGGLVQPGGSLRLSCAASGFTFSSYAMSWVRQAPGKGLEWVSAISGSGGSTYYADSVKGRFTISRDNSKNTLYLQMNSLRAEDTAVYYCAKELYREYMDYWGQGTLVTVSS
VL: SSELTQDPAVSVALGQTVRITCQGDSLRSYYASWYQQKPGQAPVLVIYGKNNRPSGIPDRFSGSSSGNTASLTITGAQAEDEADYYCNSRDSFSIHQNVFGGGTKLTVL
notes: also called clone 5C5

Target: T1, human NKG2D expressed on cells
Assay: flow cytometry; NK92 cells, Zenon-labelled IgG
Experimental: For the EC₅₀ determination of binding to NK-92 cells, the antibodies were pre-labeled with a ZENON™ Human IgG Labeling Kit (Thermo Fisher Scientific). […] Cells were washed twice with FACS buffer (2.5% FCS in PBS) and resuspended in 70 μL buffer. Fluorescence was measured using a BD FACS Canto device and EC₅₀ was determined (Table 7).

| Binder | EC50 [µg/mL] |
| --- | --- |
| B1 | 0.058 |
| B2 | 0.734 |
| B3 | 0.203 |
| B4 | 0.729 |
| B5 | 0.988 |
| B6 | 0.031 |
| B7 | 0.758 |

target: T3, di muNKG2D ECD Fc avi (murine, biotinylated at the avi-tag); assay: ELISA; biotinylated antigen on streptavidin plate
T3 construct: Dimeric fusion of murine NKG2D ECD to the C-terminus of an avi-tagged human IgG1 Fc; also called recombinant murine NKG2D
T3 sequence (chain, as listed by the source limits assumed): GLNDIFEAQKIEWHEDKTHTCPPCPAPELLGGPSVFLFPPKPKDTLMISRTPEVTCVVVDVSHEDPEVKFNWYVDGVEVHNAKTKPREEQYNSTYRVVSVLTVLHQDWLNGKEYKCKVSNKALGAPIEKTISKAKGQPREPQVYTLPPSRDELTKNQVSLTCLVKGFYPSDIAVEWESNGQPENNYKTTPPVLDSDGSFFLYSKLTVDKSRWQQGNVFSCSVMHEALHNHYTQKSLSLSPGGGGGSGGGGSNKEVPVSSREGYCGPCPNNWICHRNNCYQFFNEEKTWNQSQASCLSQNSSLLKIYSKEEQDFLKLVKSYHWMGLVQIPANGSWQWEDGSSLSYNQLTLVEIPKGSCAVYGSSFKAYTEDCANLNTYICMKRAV
Experimental: Nunc streptavidin coated plates (MicroCoat, #11974998001) were coated with 25 μl/well biotinylated his avi huNKG2D ECD (SEQ ID NO: 93) at a concentration of 0.5 μg/ml and incubated at room temperature (RT) for 1 hour. After washing with 3×90 μl/well PBST-buffer (10×PBS, Roche #11666789001+0.1% TWEEN® (polysorbate) 20), 25 μl anti-NKG2D antibodies were added in 1:3 dilutions starting at a concentration of 3 μg/ml or alternatively with a 1:30 dilution of the original sample and incubated 1 h at RT. After washing (3×90 μl/well PBST-buffer), 25 μl/well anti hu kappa chain HRP (horseradish peroxidase)-conjugate (Millipore, #AP502P, 1:2000) was added and incubated at RT for 1 h. After washing (3×90 μl/well PBST-buffer) 25 μl/well TMB (3,3′,5,5′-tetramethylbenzidine) substrate (Roche, #11835033001) was added.
Nunc streptavidin coated plates (MicroCoat, #11974998001) were coated with 25 μl/well biotinylated di muNKG2D ECD Fc avi (SEQ ID NO: 98) at a concentration of 1 μg/ml and incubated at room temperature (RT) for 1 hour. The assay was performed as described above for human NKG2D.

| Binder | OD max [OD] |
| --- | --- |
| B2 | 0.1 |
| B8 | 0.4 |
| B3 | 0.3 |
| B5 | 0.3 |
| B6 | 0.3 |
| B7 | 0.1 |

target: T4, di huNKG2D ECD Fc avi (human, biotinylated at the avi-tag); assay: SPR Biacore; IgG captured by anti-Fab, antigen analyte
T4 construct: Dimeric fusion of human NKG2D ECD to the C-terminus of an avi-tagged human IgG1 Fc
Experimental: (§1) Around 1500 resonance units (RU) of the capture antibody (10 μg/ml human Fab Capture Kit, GE Healthcare Life Sciences, #28958325) were coupled onto a CM5 chip (GE Healthcare, #BR-1005-30) using a BIACORE® B4000 instrument (GE Healthcare) at pH 5.0 by using an amine coupling kit supplied by GE Healthcare. The sample and system buffer was PBS-T (10 mM phosphate buffered saline including 0.05% TWEEN® (polysorbate) 20) pH 7.4. The flow cells were set to 25° C.—and the sample block set to 12° C.—and primed twice with running buffer. The antibody was captured by injecting a ˜10 μg/ml solution for 60 sec at a flow rate of 10 μl/min. Association was measured by injection of di huNKG2D ECD Fc avi (SEQ ID NO: 96) or di cyNKG2D ECD Fc avi (SEQ ID NO: 97) in various concentrations in solution for 180 s at a flow rate of 30 μl/min starting with 600 nM, 300 nM, 150 nM following […] dilutions. The dissociation phase was monitored for up to 450 s and triggered by switching from the sample solution to running buffer. The surface was regenerated by 2×90 s washing with a glycine pH 2.1 solution at a flow rate of 30 μl/min and an additional stabilization period of 180 s. Bulk refractive index differences were corrected by subtracting the response obtained from an anti-human Fab surface. Blank injections were also subtracted (=double referencing). For calculation of KD, kₐ and kd (see Table 8), the Langmuir 1:1 model in the BIACORE® 4000 Evaluation software 1.1 (GE Healthcare) or TraceDrawer 1.6.1 (Ridgeview Instruments AB) were used.

| Binder | Kd [nM] | koff [s⁻¹] | kon [M⁻¹ s⁻¹] |
| --- | --- | --- | --- |
| B1 | 8.2 | 0.00028 | 34000 |
| B2 | 110 | 0.0091 | 83000 |
| B8 | 16 | 0.0013 | 84000 |
| B3 | 0.55 | 3.2e-05 | 57000 |
| B4 | 8.5 | 0.00045 | 52000 |
| B5 | 3.6 | 0.00016 | 43000 |
| B6 | 3.8 | 0.00079 | 210000 |
| B7 | 29 | 0.0013 | 43000 |

target: T5, di cyNKG2D ECD Fc avi (cynomolgus, biotinylated at the avi-tag); assay: as above
T5 construct: Dimeric fusion of cynomolgus NKG2D ECD to the C-terminus of an avi-tagged human IgG1 Fc; also called recombinant cynomolgus NKG2D
T5 sequence (chain, as listed by the source limits assumed): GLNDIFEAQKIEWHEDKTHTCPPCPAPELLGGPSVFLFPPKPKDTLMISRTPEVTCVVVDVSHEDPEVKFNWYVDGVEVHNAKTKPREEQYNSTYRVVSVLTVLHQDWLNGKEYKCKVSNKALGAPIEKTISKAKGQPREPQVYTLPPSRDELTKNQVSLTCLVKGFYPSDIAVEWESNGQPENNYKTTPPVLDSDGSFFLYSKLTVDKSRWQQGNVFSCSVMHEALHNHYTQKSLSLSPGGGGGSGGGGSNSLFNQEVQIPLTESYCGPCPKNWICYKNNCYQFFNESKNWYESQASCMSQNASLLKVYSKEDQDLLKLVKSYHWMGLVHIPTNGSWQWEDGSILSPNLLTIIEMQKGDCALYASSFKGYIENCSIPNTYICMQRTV
Experimental: as §1

| Binder | Kd [nM] | koff [s⁻¹] | kon [M⁻¹ s⁻¹] | fold difference of KD, cynomolgus vs human NKG2D [fold] |
| --- | --- | --- | --- | --- |
| B1 | 47 | 0.00092 | 20000 | – |
| B2 | 61 | 0.0047 | 78000 | – |
| B8 | 7.9 | 0.00064 | 81000 | – |
| B3 | 0.78 | 3.6e-05 | 47000 | – |
| B4 | 4.5 | 0.00021 | 48000 | – |
| B5 | 2.6 | 0.0001 | 40000 | – |
| B6 | – | – | – | 187 |
| B7 | 21 | 0.0008 | 39000 | – |
| B9 | 8.4 | 0.00091 | 110000 | – |

target: T2, recombinant biotinylated human NKG2D …; assay: competition ELISA; NKG2D preincubated with antibody, MIC-B coated; EC50 estimated if no full plateau
Experimental: After washing with 3×90 μl/well PBST-buffer (10×PBS (Roche, #11666789001)+0,1% TWEEN® (polysorbate) 20), each well was incubated with 90 μl blocking buffer (10×PBS (Roche, #11666789001)+2% Bovine Serum Albumin Fraction V, fatty acid free (Roche, #10735086001)+0.05% TWEEN® (polysorbate) 20) for 1 h at RT. […] After washing (3×90 μl/well PBST-buffer), 25 μl/well of the NKG2D-antibody mixtures were transferred to the assay plate and incubated for 1 h at RT. After washing (3×90 μl/well PBST-buffer), 25 μl/well Poly-HRP40-Streptavidin (Fitzgerald, #65R-S104PHRPx) was added in a 1:2000 dilution and incubated for 1 h at RT. After an additional washing step (3×90 μl/well PBST-buffer), 25 μl TMB substrate (Roche, #11835033001) was added to each well. Measurements were performed at OD 370/492 nm.
Thus, antibodies with such a profile are non-inhibitory regarding the NKG2D: MIC-B interaction. The other 8 antibodies inhibit the binding of NKG2D to its ligand MIC-B with differing potencies.

| Binder | EC50 [µg/mL] |
| --- | --- |
| B1 | 0.111 |
| B2 | 0.067 |
| B3 | 1.64 |
| B4 | 0.56 |
| B5 | 1.06 |
| B6 | 0.02 |
| B7 | 0.332 |
| B9 | 0.717 |
